Reference: IntAct's records for PubMed 23518348

B1: Androgen receptor (Homo sapiens), P10275 (parent)
chain: MEVQLGLGRVYPRPPSKTYRGAFQNLFQSVREVIQNPGPRHPEAASAAPPGASLLLLQQQQQQQQQQQQQQQQQQQQQQQETSPRQQQQQQGEDGSPQAHRRGPTGYLVLDEEQQPSQPQSALECHPERGCVPEPGAAVAASKGLPQQLPAPPDEDDSAAPSTLSLLGPTFPGLSSCSADLKDILSEASTMQLLQQQQQEAVSEGSSSGRAREASGAPTSSKDNYLGGTSTISDNAKELCKAVSVSMGLGVEALEHLSPGEQLRGDCMYAPLLGVPPAVRPTPCAPLAECKGSLLDDSAGKSTEDTAEYSPFKGGYTKGLEGESLGCSGSAAAGSSGTLELPSTLSLYKSGALDEAAAYQSRDYYNFPLALAGPPPPPPPPHPHARIKLENPLDYGSAWAAAAAQCRYGDLASLHGAGAAGPGSGSPSAAASSSWHTLFTAEEGQLYGPCGGGGGGGGGGGGGGGGGGGGGGGEAGAVAPYGYTRPPQGLAGQESDFTAPDVWYPGGMVSRVPYPSPTCVKSEMGPWMDSYSGPYGDMRLETARDHVLPIDYYFPPQKTCLICGDEASGCHYGALTCGSCKVFFKRAAEGKQKYLCASRNDCTIDKFRRKNCPSCRLRKCYEAGMTLGARKLKKLGNLKLQEEGEASSTTSPTEETTQKLTVSHIEGYECQPIFLNVLEAIEPGVVCAGHDNNQPDSFAALLSSLNELGERQLVHVVKWAKALPGFRNLHVDDQMAVIQYSWMGLMVFAMGWRSFTNVNSRMLYFAPDLVFNEYRMHKSRMYSQCVRMRHLSQEFGWLQITPQEFLCMKALLLFSIIPVDGLKNQKFFDELRMNYIKELDRIIACKRKNPTSCSRRFYQLTKLLDSVQPIARELHQFTFDLLIKSHMVSVDFPEMMAEIISVQVPKILSGKVKPIYFHTQ
partner: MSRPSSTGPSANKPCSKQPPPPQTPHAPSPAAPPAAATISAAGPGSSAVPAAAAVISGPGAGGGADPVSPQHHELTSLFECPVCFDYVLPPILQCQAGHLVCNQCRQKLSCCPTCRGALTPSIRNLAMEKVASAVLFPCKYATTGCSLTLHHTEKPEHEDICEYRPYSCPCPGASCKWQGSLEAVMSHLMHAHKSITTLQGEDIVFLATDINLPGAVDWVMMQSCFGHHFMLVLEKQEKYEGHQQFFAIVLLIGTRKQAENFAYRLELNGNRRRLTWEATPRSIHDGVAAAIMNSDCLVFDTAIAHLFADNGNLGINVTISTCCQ

Variants of: B1
Settings: with siah2_mouse Siah2, Q06986

For L702H, which “effect of a mutation on the interaction” value is on record?
The value was “decreasing interaction”.

With V716M as the variant, how does the “effect of a mutation on the interaction” value read?
Its value is “decreasing interaction”.

With R727L as the variant, how does the “effect of a mutation on the interaction” value read?
Its value is “decreasing interaction”.

For V731M, which “effect of a mutation on the interaction” value is on record?
The value was “decreasing interaction”.

Which “effect of a mutation on the interaction” value does the source give for F755L here?
Its value is “decreasing interaction”.

With Q799E as the variant, how does the “effect of a mutation on the interaction” value read?
The value was “decreasing interaction”.

Which “effect of a mutation on the interaction” value does the source give for H875Y here?
The value was “decreasing interaction”.

T878A was tested. Which “effect of a mutation on the interaction” value did it give?
Its value is “decreasing interaction”.
